This note sets out measurements from US20210269525A1.

The target in assay [1] is human CD3e (T-cell surface glycoprotein CD3 epsilon chain) (human) (UniProt P07766). The assay is described as follows: flow cytometry, human PBMC, negative control of unstated make-up.
Assay [2] addresses monkey CD3e (Macaca fascicularis) on PBMC (Macaca fascicularis) (UniProt Q95LI5). The assay can be described thus: flow cytometry, Macaca fascicularis PBMC, negative control of unstated make-up.
For assay [3] the target is unchanged. The assay can be described thus: flow cytometry, Macaca fascicularis PBMC, control sample (Table 2: 1:400), AF647-anti-hIgG. On the technique in general: In flow cytometry, cells or beads pass a laser one at a time.
For assay [4] the target is unchanged. The assay can be described thus: flow cytometry, Macaca fascicularis PBMC, control sample (Table 2: 1:400), AF647-anti-mIgG.
Assay [5] deals with human CD3e (T-cell surface glycoprotein CD3 epsilon chain) (human) (UniProt P07766). The assay is described as follows: flow cytometry, human PBMC of subject 2 (PBMC human2#), negative control, AF647-anti-mIgG, PerCP anti-hTcRβ.
Assay [6] has the same target. The assay is described as follows: flow cytometry, human PBMC of subject 1 (PBMC human1#), negative control, AF647-anti-mIgG, PerCP anti-hTcRβ.

Sequence of monkey CD3e (Macaca fascicularis) on PBMC (Macaca fascicularis) (Q95LI5 22-198 limits assumed): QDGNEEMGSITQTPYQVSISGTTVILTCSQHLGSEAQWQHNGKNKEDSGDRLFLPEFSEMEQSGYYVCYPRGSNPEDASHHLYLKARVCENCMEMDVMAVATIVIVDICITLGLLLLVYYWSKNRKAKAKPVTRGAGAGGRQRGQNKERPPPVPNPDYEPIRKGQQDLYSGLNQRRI

Turning to NC, the upper left quadrant, percent of cells AF647+ / hTcRβ-PerCP- is 0.24% in assay [1] and 0.162% in assay [2].

For hIgG (antibody), the FL4-H, SSC-H subset (percent of cells in the AF647-positive gate) in assay [3] is 3.27%.

In assay [4], mIgG (antibody) came in with an FL4-H, SSC-H subset (percent of cells in the AF647-positive gate) of 0.58%. Moreover, the Q1, percent of cells AF647+ / hTcRβ-PerCP- is 0.0036% in assay [5] and 0.00361% in assay [6]. For the same substance, the Q2, percent of cells AF647+ / hTcRβ-PerCP+ in assay [5] is 0.21%; in assay [6], 0.19%.
